Experimental data published in US20120014998A1.

Target: GroEL (E. coli Cpn60) (E. coli) (UniProt P0A6F5)
Test: cell-based or functional assay

Sequence of GroEL (E. coli Cpn60) (E. coli) (P0A6F5 2-548 limits assumed): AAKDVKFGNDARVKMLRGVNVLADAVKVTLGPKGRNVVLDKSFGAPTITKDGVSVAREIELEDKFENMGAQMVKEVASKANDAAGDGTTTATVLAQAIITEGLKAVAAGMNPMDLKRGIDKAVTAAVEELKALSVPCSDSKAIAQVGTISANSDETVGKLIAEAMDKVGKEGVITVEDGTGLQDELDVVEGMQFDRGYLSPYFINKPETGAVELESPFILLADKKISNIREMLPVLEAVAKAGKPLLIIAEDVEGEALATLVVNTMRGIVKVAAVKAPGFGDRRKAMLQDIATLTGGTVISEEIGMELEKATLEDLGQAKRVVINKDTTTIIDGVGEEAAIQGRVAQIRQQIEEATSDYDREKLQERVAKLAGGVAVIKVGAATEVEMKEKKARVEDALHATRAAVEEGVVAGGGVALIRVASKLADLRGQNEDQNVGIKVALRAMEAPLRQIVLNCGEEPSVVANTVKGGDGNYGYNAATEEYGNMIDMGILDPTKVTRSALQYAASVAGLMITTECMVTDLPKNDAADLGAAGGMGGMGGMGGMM

B1: E. coli Cpn10 (GroES) (protein)
chain: MNIRPLHDRVIVKRKEVETKSAGGIVLTGSAAAKSTRGEVLAVGNGRILENGEVKPLDVKVGDIVIFNDGYGVKSEKIDNEEVLIMSESDILAIVEA
Which Refolding activity (% of Ala-Cpn10) (% of Ala-Cpn10) does the source give for B1 here?
The Refolding activity (% of Ala-Cpn10) (% of Ala-Cpn10) was 109.
